Results as given in the DeepSol protein solubility set.

Assay: soluble on expression in E. coli; label from the status in PepcDB or PDB records
With “MEDKATQTPEQTFSMEAALQETEARLEKRVRPGQILTGKVVLVGSEGVAVDIGAKTEGIIPFNQLTTKPLSEEELRNLLSPGDEVKVQVLRVDPETGQILLSRKKIEAQEKWDRIQELYEKGEPVTVTIKERVKGGVVAELDGVQGFMPASQLDLRRVPNLDEFVGQQVLAKIIEFHRRKGRVILSRRAVLEEEQKKAREAFLKSLEPGQVVEGTVVEVTDFGVFVNLGPVDGLVHRSEITWGRFNHPREVIQKGQKVKAQVLSVDPEKERVNLSIKALIPDPWTTVAEKYPVGTRVRGKVVGLTQFGAFVEVEPGLEGLIHISELSWTKRPKHPSEVVKEGDEVEAVVLRLDPEERRLSLGLKQTQPDPWQQLTEKYPPGTVLKGKVTGVTDFGVFVEIEPGIEGLVHVSELDHKRVENPAALFKKGDEMEVVVLNIDPVEQRVSLSRKRLLPPPLPQEEERPRRARSGKERARRKGAPRREDRREYEYGAVAEYNLYDASSVPTTTATVKLGDLYGDLLASLGLEEEAEEKSRG” the “soluble on expression in E. coli” value was “soluble”. For “MEDKPTILIMGGSLGLGNIEDIVEMVCHICDESYQIIVVTGKNKTLKKSLEERNFGRKVVVFGFISFIDKLMAISDILITKPGGLTCAEALSCKLPMILISPIPGQEERNTFYLINNGAAAYVKNIESFDIVFNQIINNPQRLEHMKLACSFLAKPLEHHHHHH”, the “soluble on expression in E. coli” value was “not soluble”. For “MEDLDALWERYREAVRAGGNPQALYQEMVWPALLALWREKPRVYPFPQAFAVSVHTLGTSPEATALAILGAGAERVYVLHTPESARFLPRLRQDTGKDLYPVEIGKSDVEAIYREVKRLLEKHPEVPVALDLTSGTKAMSAGLAAAGFFFQRFYPKVRVVYVDNEDYDPELRRPRAGTEKLRILPNPHEALAEVDALFAKELYGKGEFGQAAAYFRGMVGRTGNQAYALYALLAEMYRAWRALDFGEALKAGRKLLGQLSQNVWLNHPLNARREALEAQVALLEAVDRFLKARDFALKEGVYGLARTLLHLAQEAKEEAAVLAALYAYRALELLLQERLALLGRRAEAPGLSPEEAEALRKALAELLGVLPEEVRLPAKLGLLDLLAFLRLKGDEALGRLSLAELRGLAGALKGRNSALLVHGFDVPSPKAVEGIARLAQGLLQDLEARTALGPLSPEPVPLGF”, the “soluble on expression in E. coli” value was “soluble”. In the case of “MEDRNNIYFFYKHTKSMQEAVEPLKQLATSQGLNVVDDVQKANIIVSVGGNNAFLQATRKTNFRSDCLYVGVSTDREGFYPDFTINEIDKMFEAFENQNIEVKRLSTLEVTIDDEKPFYCLNECSIRSNVIKTFVLEVFIDDMHFETFRGDGMIVSTPTGSTAYNKSVRGAVVDPRLPSLQVSEIASLNNNTYRTLGTSFLLSGDRTLRLKVVQDGNDFPIIGADNEALSIRHAEDIKIRLSDKQVKVLKLKDNTFWHKVQRNFLLEHHHHHH”, the “soluble on expression in E. coli” value is reported as “soluble”. In the case of “MEDTAEENNESIDDQPSTSTATDPNQTRETEKEKGDDEMFRLLQATDEILENKAKSMNLSSLNVRSILHHLIKYPSTIDVLLGIRENDDLPSVRNMRSRKKPDDSGASSTVNTPKKFGALRIEDRGPKSFLDLEYEEDDEYDDDYIEENDTSTRNKLNAGSEEDEENDDEEEIEDEGEDEDDEEQDELEEDGEHEITGSEACTSGQNDTMHALLFDETSEDVQNEEDYVLNMTLNDTRAESVAPIPTLDNVDDDGFYRDFVTGINRTEKDNDNLEVLDTEDDPDDEDYNVCADDGLNVEDWDETRQDKTTQIPRHELKALMIDTLLAEKEIPLNAFPEEAINGEEHRKSQKVKDAEVYERINTSISSSSESCSLLKDSLATFRPQELQQLNMQLEQHVQLLTQLVVTCHHDVNLSHVRNSSQLMMNELDDIRQQKIYPTVFDVRNLDAAIESCHDINAFDAVDESFLKYAENTEGYGGIALRPEAAVVLSRSNAIRYPALLPSRQPFFIETPIPFLSEEDLMLAVALLQFAHLPRRGEKEMIDRYTAIQQHCLPARSSYKIRTHLKSMRRSDKNPIHQIMQAAEKGVCKLVLPLKSWQESDTPICQWPPASQPGWYRRFQETFNVTEERKILRKHVSTMVLTPVKNKDRQDQEASEATFESGEEGEDDEFVNMGTAPDGRKIIMGREHIEDLVHQLIKQNEISPSKRRKNPTPMKLSTMIQLEEAEKRIADSQKNSCGGQTISALSNVSGDSNVDNNGTHEKELMPSTSSIDSLESINNQETSKFPRPLPMSDQPTLNTSCHITTTTCSVSYEDVDVGTLKKSYVEITASKYETNSNSCFSYPIPPTPGRRSPDDFDDYFMDLESNSLMWPQTPYAVTDENPQTPRGFSASESSEPIDFSSLGKATSLDTEEIVFQSTSCQRPMGYCSDFGEFSNSSSLPEEIPVPSHQRTPQESAIEDDSSMPGLDMVPLYEEDVEECIIEDIEEEEAPIKQGLVNSRPPLRFKKEVKAGITNLAPSRKRTRIEREAMGSVGLDDEQLHDKQKENIMRKVIEDVNQRLFMHTDTYQRFKEAITDENLTDFEKVTRTIIILANHPELLNLVLLNAPPEAVISDLQCDHNYQSYKVAIEMIMDIERYITAAKLKEPSLKGLFRYIQSFLEDKPNMTDEQATKRFYELFGQDRPLWKKLESRFWCLPYKARPRLENYEYIDLTGLETMSKREKRDWNSIPPRFETVDDIDQVMGSVYRASKNEPPSNLVVKCGEFCIRNDDETYTQLEITERLWTRKDDISLLTSYNEALKTIPNFTVSQMPSLISDLSFGEKSIIARLQYLLTELKSLD”, the “soluble on expression in E. coli” value is reported as “soluble”. With “MEEAEKPLQVAAVDSSVPRTAELAGITTLDDPLGHMPERFDAFICYCPSDIQFVQEMIRQLEQTNYRLKLCVSDRDVLPGTCVWSIASELIEKRCRRMVVVVSDDYLQSKECDFQTKFALSLSPGAHQKRLIPIKYKAMKKEFPSILRFITVCDYTNPCTKSWFWTRLAKALSLPLEHHHHHH” the “soluble on expression in E. coli” value was “soluble”. For “MEEEAAVEKPISLNQQRMNGVVAALKQSNARRVIDLGCGQGNLLKILLKDSFFEQITGVDVSYRSLEIAQERLDRLRLPRNQWERLQLIQGALTYQDKRFHGYDAATVIEVIEHLDLSRLGAFERVLFEFAQPKIVIVTTPNIEYNVKFANLPAGKLRHKDHRFEWTRSQFQNWANKITERFAYNVQFQPIGEADPEVGSPTQMAVFIHRGHHHHHH”, the “soluble on expression in E. coli” value was “soluble”. With “MEEQNNNQLQIELKEEVAQGTYANLAIITHSSSEFILDFVRVMPGVPKAGVQSRIIVAPEHAKRLLRALEDNIAKYERAFGPIRISEESPMPPLSVVKGEA” the “soluble on expression in E. coli” value was “not soluble”. For “MEEYEFLVRVREAGGFDIEHLMDTKPSSCVIGCREFDNNDDYNAHIVLFARMGIHKYNMIQGTNLQLSCVEKYNYRSPRVYSAFYITLIAKDPDACNSLVTFQTRVVEEGFNMTKLSCNIARPKPGPQENAALPRHSVDLEPVKKSELLTHDWIRLYMELAFLKAHLRSPKNPNLSKLVIVMVAIETKDNMEPPSERLKARNAFFYIKYKYHANKGRGPKRRLGHKTPDRIAIVRRTLDKNTGYLTLEFPEPIL”, the “soluble on expression in E. coli” value was “soluble”. With “MEFLKLSEGKTKEVYAYDDSHVLLKFKDSITAGDGARKDILEGKGILNAQTSAFLFRLLESKGIETHYIGMFDERTMIAKKLKMIPVEVVLRNIATGSIVKRLPIKEGEVFEPPIIEFFLKDDERHDPMLNYYHMEYLKLMTRKEAEKIEEIMLKVNEILYPFFRSKKLLLYDFKLEFGRVNDKLIIGDELTLDSMRIREEGSGRILDKDLYRKGADLETVKKAYEEFFKRISE” the “soluble on expression in E. coli” value was “soluble”. In the case of “MEFSVKSGSPEKQRSACIVVGVFEPRRLSPIAEQLDKISDGYISALLRRGELEGKPGQTLLLHHVPNVLSERILLIGCGKERELDERQYKQVIQKTINTLNDTGSMEAVCFLTELHVKGRNNYWKVRQAVETAKETLYSFDQLKTNKSEPRRPLRKMVFNVPTRRELTSGERAIQHGLAIAAGIKAAKDLGNMPPNICNAAYLASQARQLADSYSKNVITRVIGEQQMKELGMHSYLAVGQGSQNESLMSVIEYKGNASEDARPIVLVGKGLTFDSGGISIKPSEGMDEMKYDMCGAAAVYGVMRMVAELQLPINVIGVLAGCENMPGGRAYRPGDVLTTMSGQTVEVLNTDAEGRLVLCDVLTYVERFEPEAVIDVATLTGACVIALGHHITGLMANHNPLAHELIAASEQSGDRAWRLPLGDEYQEQLESNFADMANIGGRPGGAITAGCFLSRFTRKYNWAHLDIAGTAWRSGKAKGATGRPVALLAQFLLNRAGFNGEE”, the “soluble on expression in E. coli” value is reported as “soluble”. With “MEFVPEQHPPITETTTGAASNGCPVVGHMKYPVEGGGNQDWWPNRLNLKVLHQNPAVADPMGAAFDYAAEVATIDVDALTRDIEEVMTTSQPWWPADYGHYGPLFIRMAWHAAGTYRIHDGRGGAGGGMQRFAPLNSWPDNASLDKARRLLWPVKKKYGKKLSWADLIVFAGNCALESMGFKTFGFGFGRVDQWEPDEVYWGKEATWLGDERYSGKRDLENPLAAVQMGLIYVNPEGPNGNPDPMAAAVDIRETFRRMAMNDVETAALIVGGHTFGKTHGAGPADLVGPEPEAAPLEQMGLGWKSSYGTGTGKDAITSGIEVVWTNTPTKWDNSFLEILYGYEWELTKSPAGAWQYTAKDGAGAGTIPDPFGGPGRSPTMLATDLSLRVDPIYERITRRWLEHPEELADEFAKAWYKLIHRDMGPVARYLGPLVPKQTLLWQDPVPAVSHDLVGEAEIASLKSQIRASGLTVSQLVSTAWAAASSFRGSDKRGGANGGRIRLQPQVGWEVNDPDGDLRKVIRTLEEIQESFNSAAPGNIKVSFADLVVLGGCAAIEKAAKAAGHNITVPFTPGRTDASQEQTDVESFAVLEPKADGFRNYLGKGNPLPAEYMLLDKANLLTLSAPEMTVLVGGLRVLGANYKRLPLGVFTEASESLTNDFFVNLLDMGITWEPSPADDGTYQGKDGSGKVKWTGSRVDLVFGSNSELRALVEVYGADDAQPKFVQDFVAAWDKVMNLDRFDVR” the “soluble on expression in E. coli” value was “soluble”. For “MEGSHHHHHHSQAQSKAQVLQSVAGQTLTVRCQYPPTGSLYEKKGWCKEASALVCIRLVTSSKPRTMAWTSRFTIWDDPDAGFFTVTMTDLREEDSGHYWCRIYRPSDNSVSKSVRFYLVVS”, the “soluble on expression in E. coli” value was “soluble”. With “MEHEGLLVAEREIEVNNYDIDAMGIVSNIVYIRWFEDLRTIFINEYMTFSEMMKEHISPILMKTEIEYKVPITIHDKPVGRCWFVKAGRMKWVFKFEITSGDKVHCIGQQTGGFLDLERQRITKMPLEHHHHHH” the “soluble on expression in E. coli” value was “not soluble”. With “MEHIEIRVSATGSMSSFHALCSFHQWPINVACSCWLSHCYRIYSLYPPQLVSCSDRLSTSGNTNAGAEFVTE” the “soluble on expression in E. coli” value was “soluble”. In the case of “MEHKEVVLLLLLFLKSGQGEPLDDYVNTQGPSLFSVTKKQLGAGSREECAAKCEEDKEFTCRAFQYHSKEQQCVIMAENRKSSIIIRMRDAVLFEK”, the “soluble on expression in E. coli” value is reported as “not soluble”. In the case of “MEIIRSNFKINLHKVYQAIEEADFFAIDGEFSGISNGPSVTALTSGFDTPEERYQKLKKHSMDFLLFQFGLCAFKYDHTDSKHVTKSFNFYVFPKPFSRSSPDVKFVCQSSSIDFLASQGFDFNKVFCSGIPYLNQEEERQLREQFDEKRSQANGAGALAKCPVTIPEDQKKFIDQVIEKIEDFLQSEEKRSLELDPCTGFQRKLIYQTLSWKYPKGIHVETLETDKKERHIVISKVDEEERKRREQEKYTKEQEELNDAVGFSRVIHAIANSGKLVVGHNMLLDVMHTIHQFYCPLPADLNEFKEMAICVFPRLLDTKLMASTQPFKDIINNTSLAELEKRLKETPFDPPKVESAEGFPSYDTASEQLHEAGYDAYITGLCFISMANYLGSLLSPPKMCVSARSKLIEPFFNKLFLMRVMDIPYLNLEGPDLQPKRDHVLHVTFPKEWKTSDLYQLFSAFGNIQISWIDDTSAFVSLSQPEQVQIAVNTSKYAESYRIQTYAEYVGKKQKGKQVKRKWTEDSWKEVDRKRPHMQGPCYHSNSFTAAGMLGKRTLSPDPREAALEDRESEEVSDSELEQTDSCTDPLPEGRKKSKKLKRMKKELSLAGSVSDSPAVLFEVPDTW”, the “soluble on expression in E. coli” value is reported as “soluble”. For “MEIKRQQEIVEAYHYDMRVPDSEVETDLRVSFSPIEVEEENYPENSSALVARLEFRIVFDEFVLSGAISQINHIIDRKIEKQEDISQEEVDELVRPLFSIVERLSYEVTEIALDRPGVQLNFQQSEEA”, the “soluble on expression in E. coli” value was “not soluble”.
